Results taken from paper PMC7592119 (Science (New York, N.Y.), 2019).

Target: truncated cycD1 (16-267) (human, UniProt P24385 16-267)
Assay: crystal structure

Chain of truncated cycD1 (16-267) (P24385 16-267): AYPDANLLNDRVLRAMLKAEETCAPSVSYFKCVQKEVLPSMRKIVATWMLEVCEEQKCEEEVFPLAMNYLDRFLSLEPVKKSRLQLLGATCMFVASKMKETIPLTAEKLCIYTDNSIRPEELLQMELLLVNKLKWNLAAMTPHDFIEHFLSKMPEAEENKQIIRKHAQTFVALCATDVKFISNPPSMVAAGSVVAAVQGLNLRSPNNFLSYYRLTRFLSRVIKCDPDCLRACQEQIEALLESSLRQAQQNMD

binding result: binds
B1: p27(3E) (p27^KID 25-93 with glutamate phosphomimetics at Y74, Y88 and Y89) (domain or fragment, human, UniProt P46527 25-93, looked up)
chain: KPSACRNLFGPVDHEELTRDLEKHCRDMEEASQRKWNFDFQNHKPLEGKEEWQEVEKGSLPEFEERPPR
